{"source": "patent US5445935", "binders": {"B1": {"name": "fluorescein-labeled 25-mer trp operator duplex (dsDNA)", "DNA 1": "CTTGCACTAGTTAACTAGTCAGCAA", "DNA 2": "TTGCTGACTAGTTAACTAGTGCAAG"}}, "molecular_target": "tryptophan repressor (TrpR) (UniProt P0A881 P0A881:2-108)", "assay": "FP; dimer-DNA Kd from linked monomer-dimer/DNA binding model (preferred fit; dimer-monomer Kd 3.5 nM); 0.2 nM DNA, 10 mM K phosphate, 0.1 mM EDTA, 10% glycerol, pH"}
{"binder": "B1", "values": [{"measurement": "Kd", "result": 230, "unit": "pM"}]}
